Laboratory results reported in the supplement of paper PMC9170038.

The sequences below were run on MS2 coat protein (assay: apparent KD of MS2 coat protein; higher = weaker reporter binding). Details: Eterna round: R107; input ligand: theophylline 2 mM.
Method in brief: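 Binding of SNAP-549-labelled MS2 coat protein was measured on designed RNA switches transcribed on-chip from Illumina sequencing clusters. The protein rose in twofold steps from 0.7 or 1.5 nM to 3 µM, with 0.8–1.5 h per step early on and 10–20 min per step later, in 100 mM Tris-HCl pH 7.5, 80 mM KCl, 4 mM MgCl2, without or with constant ligand. Each design's apparent KD is the median of fits to its normalised cluster binding curves.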

**Q.** How did the “apparent KD of MS2 coat protein” value turn out when “GACAUAUGCUAUGCGCAGGCUACCCUCAGCCGAGGACCGGUACGGCCGCCACUCGUACUACCACAUGAGGAUCACCCAUGUUAUC [theeternabot_exclusion_MS2_Trp_A_29]” was run?
**A.** Its value is 23.9 nM.

**Q.** Which “apparent KD of MS2 coat protein” value does the source give for “AUUAUAGUUUAUAACGAAGUUGAUACAGAAGGAGCGUGAAUAAUCACAGGUAGGUCGCUGAUAAUACAUGAGGAUCACCCAUGUU [JR_Nu_SSArginiA_Sub018]” here?
**A.** Its value is 18.9 nM.

**Q.** Which “apparent KD of MS2 coat protein” value does the source give for “UGCUAGUGAUCGGCCGCCACUGGCACCUUGAGGAUCCUGCUAAAGUACAUGAGGAUCACCCAUGUCAGGACCGGGAUCAUCAGUG [Onveusonri]” here?
**A.** Its value is 10.8 nM.

**Q.** How did the “apparent KD of MS2 coat protein” value turn out when “UAGUCCGCGACGGCCGCCACUCGCUGAUGCACAUGUGUCCGGGACAUGAGGAUCACCCAUGUUUCGAGGACCGGGUCGAUCCUAA [Same State Tryptophan B GF 5]” was run?
**A.** Its value is 91.6 nM.

**Q.** With “GUCUGUGACUGAAGGAGCGACAUGAGGAUCACCCAUGUCUCCCGUUAUGGGAGUUCCUUAGGUCAGGUAGGUCGCAGUCACAGAC [#1 Exclusion - Arginine B Attempt #28 (Inspired by Omei)]” as the sequence, how does the “apparent KD of MS2 coat protein” value read?
**A.** Its value is 152 nM.

**Q.** With “CGGUAACCACAUGAGGAUCACCCAUGUGAAGGAGCGGCGAAUAAGCCAGGUAGGUCGCGCAUGAAUAAAUCAUGUUGGUGCCGAA [XArg-A 16 NuPack]” as the sequence, how does the “apparent KD of MS2 coat protein” value read?
**A.** The value was 64.5 nM.

**Q.** “GUUGGACUUUCGGCCGCCACUGAGAGAGUCAUGUGAACAUGAGGAUCACCCAUGUAAUAUAUAUACAGGACCGGGAGGGUUGUAA [4.M]” was tested. Which “apparent KD of MS2 coat protein” value did it give?
**A.** The value was 13.9 nM.

**Q.** For “UGGGUACAUGAGGAUCACCCAUGUACUGAAGGAGCGGGACGAAUCUCAGGUAGGUCGCAGACAUGAGGAUCACCCAUGUAGUGGA [Exclusion Arginine A GF 15]”, which “apparent KD of MS2 coat protein” value is on record?
**A.** Its value is 17.2 nM.

Same assay, conditions: Eterna round: R107; input ligand: tryptophan 2.4 mM

**Q.** How did the “apparent KD of MS2 coat protein” value turn out when “AUUUACAUGGUCAUAUAUAUAUCGUCAGAUACCAGACGAGAUAUUGUCCCUUGGCAGCUGUUACAUGAGGAUCACCCAUGUAAUU [JR_Nu_ExcTheophyA_Sub021]” was run?
**A.** Its value is 64.7 nM.

**Q.** For “UGCCCUGCGAGCGCUCGCAGGGCAGCGGAUACCAGCGAGGUCCAUCGCCCUUGGCAGCCGAACAUGAGGAUCACCCAUGUCGGUG [Same State - Theophylline A Attempt #9 (HarryS)]”, which “apparent KD of MS2 coat protein” value is on record?
**A.** Its value is 13.2 nM.

**Q.** With “AGCAUGUUAUCAGAUACCAGACAUCUUUUAAAACAUAUUACAUGAGGAUCACCCAUGUUGGUCCCUUGGCAGCUGAAAUAUUUCA [JR_Nu_SSTheophyB_Sub024]” as the sequence, how does the “apparent KD of MS2 coat protein” value read?
**A.** Its value is 321 nM.

**Q.** For “GUCCUAGCGAGCGCUCGCUAGGACGCGGAUACCAGCGAGGUCCAUCGCCCUUGGCAGCCGAACAUGAGGAUCACCCAUGUCGGUA [#1 Same State - Theophylline A Attempt #16 (HarryS)]”, which “apparent KD of MS2 coat protein” value is on record?
**A.** The value was 9.97 nM.

**Q.** “ACGGAGAUUGCUAAAUGUUGGCGAGCGGAUACCAGCCUAUUAUUGGGCCCUUGGCAGCCGACAUGAGGAUCACCCAUGUAAACAA [Berere]” was tested. Which “apparent KD of MS2 coat protein” value did it give?
**A.** Its value is 76.7 nM.

**Q.** “GGUUGGUGUGGAGACAUAUUGAUCACUGAAGGAGCGGGAAUAAACCCAGGUAGGUCGCAGAGAUCCACAUGAGGAUCACCCAUGU [!0.Q]” was tested. Which “apparent KD of MS2 coat protein” value did it give?
**A.** Its value is 36.2 nM.

**Q.** Which “apparent KD of MS2 coat protein” value does the source give for “UUUAUGGAGCUUUUAUUUACGAUUUCUGAUACCAGUGUUUCAUUUCACCCUUGGCAGCAGUGACAUGAGGAUCACCCAUGUAAUA [JR_Nu_SSTheophyA_Sub020]” here?
**A.** Its value is 27.7 nM.

**Q.** With “CGGUACAUGAGGAUCACCCAUGUGUCGGAUACCAGAGAGCCGUCUCUCCCUUGGCAGCUGGUUUUACAUGAGGAUCACCCAUGUG [Exclusion Theophylline A GF20]” as the sequence, how does the “apparent KD of MS2 coat protein” value read?
**A.** The value was 12.6 nM.

**Q.** Which “apparent KD of MS2 coat protein” value does the source give for “ACACAUGAGGAUCACCCAUGUGCGCUGGAAGGAGCGCAGAAUCAUGCAGGUAGGUCGCCAGUGCCCUUCGAUAAAGGGAAAAGAG [Erbienes]” here?
**A.** Its value is 69.1 nM.

**Q.** With “GGUCUCUGGAGCGAUACCAGCUUAAAUGUACUGGCCAGGUACAUGAGGAUCACCCAUGUAAGCCCUUGGCAGCGCUCCAGAGACC [#1 Exclusion - Theophylline B Attempt #13 (HarryS)]” as the sequence, how does the “apparent KD of MS2 coat protein” value read?
**A.** The value was 13.5 nM.

**Q.** For “ACAUGAGACAUGGAUACCAGCGACAUGAGGAUCACCCAUGUAUGAGGAUCACCCAUGUUAUGCCCUUGGCAGCCACAAACAUGAG [.PLMULLINP]”, which “apparent KD of MS2 coat protein” value is on record?
**A.** Its value is 15.2 nM.

**Q.** For “GAUGAACUAUUUGAUACCAGACUACAUGAGGAUCACCCAUGUGAGUUUCCUCCUCUGCCAGUCCCUUGGCAGCAAAUAGUUUAUC [XTheo B #7]”, which “apparent KD of MS2 coat protein” value is on record?
**A.** Its value is 42.3 nM.

**Q.** With “GGGCGCGUGGACCGGCGUGCUCCGCUCCGUCGAGGACCGGUACGGCCGCCACUCGACAUGAGGAUCACCCAUGUGCGAGCUCGCG [#1 Exclusion - Tryptophan A Attempt #15 (HarryS)]” as the sequence, how does the “apparent KD of MS2 coat protein” value read?
**A.** Its value is 191 nM.

**Q.** Which “apparent KD of MS2 coat protein” value does the source give for “GGAUAGGACAGAAGGAGCGUGAGAUGCAUACCUUCAUUCCUCACAUGAGGAUCACCCAUGUCACAGGUAGGUCGCUGUCCUAUCG [#20 Exclusion - Arginine B]” here?
**A.** Its value is 90.7 nM.

**Q.** For “CUGACGGACUCGGCCGCCACUGAUAGUAGGACAUGAGGAUCACCCAUGUAAACGAACCUCAUAGCCAGGACCGGGAGUCACGAAG [Same State Tryptophan B GF 22]”, which “apparent KD of MS2 coat protein” value is on record?
**A.** Its value is 49.5 nM.

**Q.** Which “apparent KD of MS2 coat protein” value does the source give for “AAUAAUAUGAGGAUCACCCAUAUAAAAGAUACCAGAGUGAUGAUCCUCCCUUGGCAGCUUAACGCUGAUUGAUUACAAUCAGCGA” here?
**A.** The value was 25.5 nM.

**Q.** With “AUGUCGUUGAAUACAGCGGCAUGGUGUGAUACCAGAAUGAUCAAAUUCCCUUGGCAGCAUCACAUGAGGAUCACCCAUGUUAAGG [SSTheo A #17]” as the sequence, how does the “apparent KD of MS2 coat protein” value read?
**A.** The value was 46.4 nM.

**Q.** With “AUUCCAUAGGUGCAGUUGUUAAAUGGCGAUACCAGCGUGGAAACACGCCCUUGGCAGCGCCAAAACAUGAGGAUCACCCAUGUUA [Kladno]” as the sequence, how does the “apparent KD of MS2 coat protein” value read?
**A.** The value was 94.8 nM.

**Q.** With “AAACAUUGCUGCGAUACCAGACAUGAGGAUCACCCAUGUACCAAGAAAACGUACAUAAAUGUCCCUUGGCAGCGCAGCAAUGAAA [MAT - Exclusion Theophlline B - Mod of Eli - D27]” as the sequence, how does the “apparent KD of MS2 coat protein” value read?
**A.** Its value is 651 nM.

**Q.** “AUUAUAGUUUAUAACGAAGUUGAUACAGAAGGAGCGUGAAUAAUCACAGGUAGGUCGCUGAUAAUACAUGAGGAUCACCCAUGUU [JR_Nu_SSArginiA_Sub018]” was tested. Which “apparent KD of MS2 coat protein” value did it give?
**A.** The value was 19.4 nM.

**Q.** “GUCUGUGACUGAAGGAGCGACAUGAGGAUCACCCAUGUCUCCCGUUAUGGGAGUUCCUUAGGUCAGGUAGGUCGCAGUCACAGAC [#1 Exclusion - Arginine B Attempt #28 (Inspired by Omei)]” was tested. Which “apparent KD of MS2 coat protein” value did it give?
**A.** The value was 103 nM.

**Q.** Which “apparent KD of MS2 coat protein” value does the source give for “CGGUAACCACAUGAGGAUCACCCAUGUGAAGGAGCGGCGAAUAAGCCAGGUAGGUCGCGCAUGAAUAAAUCAUGUUGGUGCCGAA [XArg-A 16 NuPack]” here?
**A.** The value was 31 nM.

**Q.** With “AGACAUGAGGAUCACCCAUGUAGUAUGGAUACCAGAUCCAGAUUUAUCCCUUGGCAGCUGUGGUACAGCGUUGCAUCGCUCCUAG [Exclusion - Theophylline A (Freestyle 13)]” as the sequence, how does the “apparent KD of MS2 coat protein” value read?
**A.** The value was 31.7 nM.

**Q.** Which “apparent KD of MS2 coat protein” value does the source give for “CUGGCAGGAUGAUCCGCUGUCAGGGCUGAUACCAGCCACGAAAGUGGCCCUUGGCAGCAGCAAACAUGAGGAUCACCCAUGUAAA [(T)''-(M)'-(T)'-(Theo)-(Ms2)_Design2]” here?
**A.** Its value is 108 nM.

**Q.** With “GCUGGGUGCGCAAGGACCUGGCGUUGCGAUACCAGCACGGUAACGUGCCCUUGGCAGCGCACAUGAGGAUCACCCAUGUGGUGUU [#1 Exclusion - Theophylline A Attempt #19 (HarryS)]” as the sequence, how does the “apparent KD of MS2 coat protein” value read?
**A.** The value was 221 nM.

**Q.** With “UGGGUACAUGAGGAUCACCCAUGUACUGAAGGAGCGGGACGAAUCUCAGGUAGGUCGCAGACAUGAGGAUCACCCAUGUAGUGGA [Exclusion Arginine A GF 15]” as the sequence, how does the “apparent KD of MS2 coat protein” value read?
**A.** Its value is 14.6 nM.
